These results are taken from publication PMC3130014, “The Cryo-EM Structure of a Complete 30S Translation Initiation Complex from Escherichia coli” (PLoS Biology, 2011).

In this experiment the target is T1, initiation factor 2 (IF2α) from E. coli (E. coli, UniProt P0A705 1-890).
T1 construct: Translation initiation factor IF2, alpha form (IF2α), E. coli; CTD: G2 391-559, G3 560-672, C1 673-779, C2 780-890); source: prepared as described [14]
Description: cryo-EM structure; 30S IC reconstituted from 30S subunits (0.1 µM), IF1 (0.3 µM), IF2α (0.2 µM), IF3 (0.3 µM), 002 mRNA (0.6 µM), fMet-tRNA^fMet (0.6 µM), GDPNP (0.5 mM); 37°C 15 min, buffer A (50 mM Tris-HCl pH 7.5, 70 mM NH4Cl, 30 mM KCl, 7 mM MgCl2); class 2 map at 18.3/15 Å; rigid-body and flexible fitting of a homology model of IF2. The following applies: both partners purified.

T1 sequence (P0A705 whole entry): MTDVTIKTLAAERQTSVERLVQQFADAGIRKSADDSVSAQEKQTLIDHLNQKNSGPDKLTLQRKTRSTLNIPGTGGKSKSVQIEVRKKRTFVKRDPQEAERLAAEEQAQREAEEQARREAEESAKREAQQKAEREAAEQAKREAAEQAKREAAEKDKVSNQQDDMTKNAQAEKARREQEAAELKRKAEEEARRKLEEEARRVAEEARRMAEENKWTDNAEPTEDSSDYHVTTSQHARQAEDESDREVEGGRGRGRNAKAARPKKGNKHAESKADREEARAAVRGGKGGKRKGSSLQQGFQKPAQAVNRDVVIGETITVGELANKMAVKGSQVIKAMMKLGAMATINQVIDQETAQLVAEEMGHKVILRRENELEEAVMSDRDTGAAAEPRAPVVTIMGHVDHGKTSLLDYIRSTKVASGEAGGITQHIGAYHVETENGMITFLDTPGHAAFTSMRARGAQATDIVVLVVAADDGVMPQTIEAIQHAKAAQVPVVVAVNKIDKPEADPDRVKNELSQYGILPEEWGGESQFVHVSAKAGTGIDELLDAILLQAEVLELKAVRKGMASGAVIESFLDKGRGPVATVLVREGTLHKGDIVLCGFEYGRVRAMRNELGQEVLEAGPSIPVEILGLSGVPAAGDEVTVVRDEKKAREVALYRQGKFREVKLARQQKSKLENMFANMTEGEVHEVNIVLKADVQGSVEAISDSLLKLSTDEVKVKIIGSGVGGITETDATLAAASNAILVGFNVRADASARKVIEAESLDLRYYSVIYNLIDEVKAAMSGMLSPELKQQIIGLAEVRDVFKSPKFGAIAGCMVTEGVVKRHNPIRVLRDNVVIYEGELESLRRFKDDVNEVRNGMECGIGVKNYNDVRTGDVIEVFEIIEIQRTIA

B1: initiation factor 1 (IF1) from E. coli (natural protein, UniProt P69222 1-72, looked up)
chain: MAKEDNIEMQGTVLETLPNTMFRVELENGHVVTAHISGKMRKNYIRILTGDKVTVELTPYDLSKGRIVFRSR
notes: Translation initiation factor IF1, E. coli; source: prepared as described [14]
On to B1, for which the binding result is on record as “binds”.
